Results: IntAct's records for PubMed 20133777

B1: Receptor-type tyrosine-protein phosphatase T (Homo sapiens), O14522-1 (parent)
chain: MASLAALALSLLLRLQLPPLPGARAQSAAGGCSFDEHYSNCGYSVALGTNGFTWEQINTWEKPMLDQAVPTGSFMMVNSSGRASGQKAHLLLPTLKENDTHCIDFHYYFSSRDRSSPGALNVYVKVNGGPQGNPVWNVSGVVTEGWVKAELAISTFWPHFYQVIFESVSLKGHPGYIAVDEVRVLAHPCRKAPHFLRLQNVEVNVGQNATFQCIAGGKWSQHDKLWLQQWNGRDTALMVTRVVNHRRFSATVSVADTAQRSVSKYRCVIRSDGGSGVSNYAELIVKEPPTPIAPPELLAVGATYLWIKPNANSIIGDGPIILKEVEYRTTTGTWAETHIVDSPNYKLWHLDPDVEYEIRVLLTRPGEGGTGPPGPPLTTRTKCADPVHGPQNVEIVDIRARQLTLQWEPFGYAVTRCHSYNLTVQYQYVFNQQQYEAEEVIQTSSHYTLRGLRPFMTIRLRLLLSNPEGRMESEELVVQTEEDVPGAVPLESIQGGPFEEKIYIQWKPPNETNGVITLYEINYKAVGSLDPSADLSSQRGKVFKLRNETHHLFVGLYPGTTYSFTIKASTAKGFGPPVTTRIATKISAPSMPEYDTDTPLNETDTTITVMLKPAQSRGAPVSVYQLVVKEERLQKSRRAADIIECFSVPVSYRNASSLDSLHYFAAELKPANLPVTQPFTVGDNKTYNGYWNPPLSPLKSYSIYFQALSKANGETKINCVRLATKAPMGSAQVTPGTPLCLLTTGASTQNSNTVEPEKQVDNTVKMAGVIAGLLMFIIILLGVMLTIKRRRNAYSYSYYLSQRKLAKKQKETQSGAQREMGPVASADKPTTKLSASRNDEGFSSSSQDVNGFTDGSRGELSQPTLTIQTHPYRTCDPVEMSYPRDQFQPAIRVADLLQHITQMKRGQGYGFKEEYEALPEGQTASWDTAKEDENRNKNRYGNIISYDHSRVRLLVLDGDPHSDYINANYIDGYHRPRHYIATQGPMQETVKDFWRMIWQENSASIVMVTNLVEVGRVKCVRYWPDDTEVYGDIKVTLIETEPLAEYVIRTFTVQKKGYHEIRELRLFHFTSWPDHGVPCYATGLLGFVRQVKFLNPPEAGPIVVHCSAGAGRTGCFIAIDTMLDMAENEGVVDIFNCVRELRAQRVNLVQTEEQYVFVHDAILEACLCGNTAIPVCEFRSLYYNISRLDPQTNSSQIKDEFQTLNIVTPRVRPEDCSIGLLPRNHDKNRSMDVLPLDRCLPFLISVDGESSNYINAALMDSHKQPAAFVVTQHPLPNTVADFWRLVFDYNCSSVVMLNEMDTAQFCMQYWPEKTSGCYGPIQVEFVSADIDEDIIHRIFRICNMARPQDGYRIVQHLQYIGWPAYRDTPPSKRSLLKVVRRLEKWQEQYDGREGRTVVHCLNGGGRSGTFCAICSVCEMIQQQNIIDVFHIVKTLRNNKSNMVETLEQYKFVYEVALEYLSSF

Variants of: B1
Settings: with paxi_human PXN

Row | effect of a mutation on the interaction | Variant
1 | increasing interaction | D1074A
2 | increasing interaction | D1074A;C1106S
